Results published in patent US20190269786A1 (published 2019).

Columns and labels:
Test in all cases: cell-based or functional assay
EGFR = EGFR (UniProt P00533 25-1210, limits assumed)
[1] = biological target: T1, folate receptor 1 (FOLR1) (human, UniProt P15328 25-234)
[2] = biological target: T1, folate receptor 1 (FOLR1); remark: listed apart in the source
[3] = biological target: T1, folate receptor 1 (FOLR1); remark: listed apart in the source

T1 sequence (P15328 25-234): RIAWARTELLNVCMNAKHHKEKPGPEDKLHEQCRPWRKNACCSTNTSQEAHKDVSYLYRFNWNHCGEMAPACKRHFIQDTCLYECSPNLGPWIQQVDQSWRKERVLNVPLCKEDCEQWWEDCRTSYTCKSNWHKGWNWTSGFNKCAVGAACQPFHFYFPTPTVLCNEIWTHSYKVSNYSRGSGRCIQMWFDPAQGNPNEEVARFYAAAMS

Row | Binder | IC50, in vitro cytotoxicity (WST-8), Ishikawa cells, conjugate [2] [nM] | IC50, in vitro cytotoxicity (WST-8), KB cells, conjugate [2] [nM] | IC50, in vitro cytotoxicity (WST-8), NCI-H2110 cells, conjugate [2] [nM] | IC50, in vitro cytotoxicity, Ishikawa cells, conjugate + unmodified antibody (1 µM huMOV19) [2] [nM] | IC50, in vitro cytotoxicity, KB cells, conjugate + unmodified antibody (1 µM huMOV19) [2] [nM] | IC50, in vitro cytotoxicity, NCI-H2110 cells, conjugate + unmodified antibody (1 µM huMOV19) [2] [nM] | also measured
1 | huML66-90 conjugate (antibody, human IgG1, kappa, V domains shown, drug attachment sites not stated (see heavy chain); compound 90 conjugated to the antibody, average 2.7 per antibody; residues not stated) VH: QVQLQESGPGLVKPSETLSLTCTVSGLSLASNSVSWIRQPPGKGLEWMGVIWNHGGTDYNPSIKSRLSISRDTSKSQVFLKMNSLTAADTAMYFCVRKGGIYFDYWGQGVLVTVSS VL: DTVLTQSPSLAVSPGERATISCRASESVSTLMHWYQQKPGQQPKLLIYLASHRESGVPARFSGSGSGTDFTLTIDPMEAEDTATYYCQQSRNDPWTFGQGTKLELKR |  |  |  |  |  |  | EC50, in vitro cytotoxicity (WST-8), Detroit-562 cells (EGFR): 0.016 nM; EC50, in vitro cytotoxicity (WST-8), NCI-H292 cells (EGFR): 0.012 nM; EC50, in vitro cytotoxicity (WST-8), NCI-H1703 cells (EGFR): 0.02 nM; EC50, in vitro cytotoxicity, Detroit-562 cells, +block (excess unconjugated huML66 antibody) (EGFR): 2.35 nM; EC50, in vitro cytotoxicity, NCI-H292 cells, +block (excess unconjugated huML66 antibody) (EGFR): 1.57 nM; EC50, in vitro cytotoxicity, NCI-H1703 cells, +block (excess unconjugated huML66 antibody) (EGFR): 2.14 nM
2 | huMOV19-14 conjugate (antibody, human IgG1, kappa, V domains shown, drug attachment sites not stated (see heavy chain); compound 14 (indolinobenzodiazepine dimer, Gly-Gly-Gly linker, NHS ester) conjugated to the antibody, average 3.0 per antibody; residues not stated) VH: QVQLVQSGAEVVKPGASVKISCKASGYTFTGYFMNWVKQSPGQSLEWIGRIHPYDGDTFYNQKFQGKATLTVDKSSNTAHMELLSLTSEDFAVYYCTRYDGSRAMDYWGQGTTVTVSS VL: DIVLTQSPLSLAVSLGQPAIISCKASQSVSFAGTSLMHWYHQKPGQQPRLLIYRASNLEAGVPDRFSGSGSKTDFTLTISPVEAEDAATYYCQQSREYPYTFGGGTKLEIKR |  |  |  |  |  |  | IC50, in vitro cytotoxicity (WST-8) against KB cells [1]: 0.004 nM
3 | huMOV19-sulfo-SPDB-107 conjugate (antibody, human IgG1, kappa, V domains shown, drug attachment sites not stated (see heavy chain); compound 107 linked through sulfo-SPDB linker to the antibody, average 2.7 per antibody; residues not stated) VH: QVQLVQSGAEVVKPGASVKISCKASGYTFTGYFMNWVKQSPGQSLEWIGRIHPYDGDTFYNQKFQGKATLTVDKSSNTAHMELLSLTSEDFAVYYCTRYDGSRAMDYWGQGTTVTVSS VL: DIVLTQSPLSLAVSLGQPAIISCKASQSVSFAGTSLMHWYHQKPGQQPRLLIYRASNLEAGVPDRFSGSGSKTDFTLTISPVEAEDAATYYCQQSREYPYTFGGGTKLEIKR | 0.05 | 0.005 | 0.1 | 2 | 0.8 | 7 | 
4 | huMOV19-90 conjugate (antibody, human IgG1, kappa, V domains shown, drug attachment sites not stated (see heavy chain); compound 90 (indolinobenzodiazepine dimer, L-Ala-L-Ala linker, NHS ester) conjugated to the antibody, average 2.7 per antibody; residues not stated) VH: QVQLVQSGAEVVKPGASVKISCKASGYTFTGYFMNWVKQSPGQSLEWIGRIHPYDGDTFYNQKFQGKATLTVDKSSNTAHMELLSLTSEDFAVYYCTRYDGSRAMDYWGQGTTVTVSS VL: DIVLTQSPLSLAVSLGQPAIISCKASQSVSFAGTSLMHWYHQKPGQQPRLLIYRASNLEAGVPDRFSGSGSKTDFTLTISPVEAEDAATYYCQQSREYPYTFGGGTKLEIKR | 0.05 | 0.005 | 0.1 | 1 | 1 | 4 | IC50, in vitro cytotoxicity (WST-8), KB cells, -Block [3]: 0.004 nM; IC50, in vitro cytotoxicity (WST-8), NCI-H2110 cells, -Block [3]: 0.02 nM; IC50, in vitro cytotoxicity, KB cells, +Block (1 µM blocking anti-FOLR1 antibody huMOV19) [3]: 0.8 nM; IC50, in vitro cytotoxicity, NCI-H2110 cells, +Block (1 µM blocking anti-FOLR1 antibody huMOV19) [3]: 10 nM
